In assay [1] the target is T1, sortilin expressed on cancer cells (SKOV3, ES-2 ovarian cancer cells) (UniProt Q99523 78-831, limits assumed).
T1 sequence (looked up): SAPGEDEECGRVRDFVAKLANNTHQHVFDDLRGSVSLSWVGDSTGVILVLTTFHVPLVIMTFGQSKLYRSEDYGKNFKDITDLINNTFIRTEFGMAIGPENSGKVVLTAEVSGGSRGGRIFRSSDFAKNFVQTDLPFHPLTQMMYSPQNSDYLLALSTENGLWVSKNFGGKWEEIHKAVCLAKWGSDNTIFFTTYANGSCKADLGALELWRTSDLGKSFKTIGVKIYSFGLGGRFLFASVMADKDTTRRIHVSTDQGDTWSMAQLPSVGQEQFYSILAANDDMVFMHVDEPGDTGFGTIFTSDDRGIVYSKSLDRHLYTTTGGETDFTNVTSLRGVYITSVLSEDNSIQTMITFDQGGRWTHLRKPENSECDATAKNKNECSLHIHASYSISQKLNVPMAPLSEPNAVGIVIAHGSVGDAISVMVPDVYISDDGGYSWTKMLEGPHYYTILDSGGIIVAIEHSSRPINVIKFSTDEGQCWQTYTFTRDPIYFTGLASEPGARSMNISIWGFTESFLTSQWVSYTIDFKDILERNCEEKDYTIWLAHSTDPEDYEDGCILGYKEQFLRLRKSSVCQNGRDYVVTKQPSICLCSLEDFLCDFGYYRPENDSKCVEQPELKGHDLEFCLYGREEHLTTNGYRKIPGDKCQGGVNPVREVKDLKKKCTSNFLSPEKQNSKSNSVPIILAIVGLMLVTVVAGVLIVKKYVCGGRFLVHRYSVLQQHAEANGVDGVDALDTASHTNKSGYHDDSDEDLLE

Assay [2] deals with T1, sortilin expressed on cancer cells …. This is another data set of the same source.
Assay [3] has the same target. This is another data set of the same source.
For assay [4] the target is unchanged. The source holds these as a separate data set.
A further assay has as its target T2, soluble form of sortilin (UniProt Q99523 78-755, limits assumed).
T2 construct: also called soluble sortilin; receptor sortilin
T2 sequence (looked up): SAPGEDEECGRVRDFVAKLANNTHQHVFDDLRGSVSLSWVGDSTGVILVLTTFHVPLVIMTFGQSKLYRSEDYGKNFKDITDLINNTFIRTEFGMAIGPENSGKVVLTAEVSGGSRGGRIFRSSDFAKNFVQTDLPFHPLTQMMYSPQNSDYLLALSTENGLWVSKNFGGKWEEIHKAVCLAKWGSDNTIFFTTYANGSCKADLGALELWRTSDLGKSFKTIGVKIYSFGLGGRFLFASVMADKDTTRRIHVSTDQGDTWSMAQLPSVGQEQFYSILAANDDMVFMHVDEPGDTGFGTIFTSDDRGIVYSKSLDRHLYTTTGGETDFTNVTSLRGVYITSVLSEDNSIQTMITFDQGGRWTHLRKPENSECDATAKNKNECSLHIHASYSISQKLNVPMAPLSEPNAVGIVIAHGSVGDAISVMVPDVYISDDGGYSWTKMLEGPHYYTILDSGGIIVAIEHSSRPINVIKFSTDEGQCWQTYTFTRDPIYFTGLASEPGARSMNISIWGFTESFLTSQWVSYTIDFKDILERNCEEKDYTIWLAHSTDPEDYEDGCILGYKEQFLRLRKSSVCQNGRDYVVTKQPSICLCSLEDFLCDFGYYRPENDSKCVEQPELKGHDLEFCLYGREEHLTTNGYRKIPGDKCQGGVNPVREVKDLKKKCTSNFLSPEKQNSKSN
The assay can be described thus: SPR; biotinylated KBP-103 on a streptavidin chip, soluble sortilin injected. Here is the method:
Biotinylated Katana peptide was immobilized on a streptavidin sensor chip. A. Soluble sortilin was then injected over the immobilized peptide. The surface plasmon resonance signal was then monitored over time.
Surface plasmon resonance (SPR) was first used to investigate whether these peptides could be recognized by sortilin. For this approach, biotin was added on the C-terminal end of the Katana-Biopharma peptide during peptide synthesis. The biotinylated-peptide (KBP-103) was then immobilized on a streptavidin sensor chip using recommended procedures from the manufacturer. Increasing concentrations of a soluble form of sortilin was then injected over the sensor chip. Interactions between immobilized KBP-103 and the receptor sortilin was then monitored in real time. A representative interaction curve is shown in FIG. 1, and from the sensorgram curves the affinity constant as well as Ka and Kd were determined and are indicated in Table 2. Affinity constants (KD, […]) were extracted from various injections using the BIA evaluation software.

The target in assay [5] is T1, sortilin expressed on cancer cells …. The assay can be described thus: cell-based or functional assay.

Non-standard residues stand in square brackets, D forms with d. No end group written: not given here. *: point of attachment. curcumin = curcumin, a phytochemical attached to the lysine side chains; Biotin = O=C1N[C@H]2[C@H](CS[C@H]2CCCCC(=O)*)N1; Nle = CCCC[C@H](N)C(=O)O

Experimental findings from patent US20240199695A1 (TRANSFERT PLUS S E C, published 2024) are described below.

“Progranulin (from UniProt P28799 18-593) (ligand)” returned a decrease of the late apoptosis induced by 2 uM KBA-201 in SKOV3 cells by 1.2 nM progranulin in assay [1] of 55%. The molecule further came in with an inhibition of KBB106 accumulation (% of control) in ovarian cancer cells by progranulin in assay [2] of 52%. In addition, the inhibition of KBC106 fluorescence intensity (RFU) in ES-2 cells by progranulin [continued) C] in assay [3] is 81.5%.

For “Neurotensin (from UniProt P30990 151-163) (peptide)”, the decrease of the late apoptosis induced by 2 uM KBA-201 in SKOV3 cells by 10 uM NT in assay [1] worked out at 45.5%. The molecule further registered an inhibition of KBC106 fluorescence intensity (RFU) in ES-2 cells by neurotensin (bar NT) [continued) C] in assay [3] of 52%. Further, the decrease of the late apoptosis induced by 2 uM KBA-105 in SKOV3/Luc cells by 10 uM NT in assay [4] was 47.5%.

B1: KBP-103: IKLSGGVQAKAGVINMFKSESYK(Biotin) (peptide)
peptide: IKLSGGVQAKAGVINMFKSESYK(Biotin)
notes: Immobilised on a streptavidin sensor chip in the SPR assay; also called biotinylated-peptide; Katana peptide
Broadly, the Kd is the constant that tells how readily two partners part at equilibrium. A lower Kd goes with a tighter complex. The term koff denotes the rate constant with which the complex falls apart. As a reminder, the kon is a measure of how fast the partners come together. Lower therefore signals slower complex formation. In the assay with soluble form of sortilin, B1 gave a dissociation constant (Kd) of 25.5 nM, a koff of 0.0174 s⁻¹ and an on-rate (kon) of 683000 M⁻¹ s⁻¹.

B2: KBC-106 (2:1): Acetyl-GVRAK(curcumin)AGVRN(Nle)FK(curcumin)SESY (peptide)
peptide: Ac-GVRAK(curcumin)AGVRN[Nle]FK(curcumin)SESY
On to B2, for which, in assay [5], the “relative fluorescence (RFU) of ES-2 cells after KBC106 against unconjugated curcumin (live imaging)” value was determined as 2.3 fold.
